Paper PMC3541234, “Functional Characterization of a Chimeric Soluble Fas Ligand Polymer with In Vivo Anti-Tumor Activity” (PLoS ONE, 2013)
Several values for one entry are separate records, joined by “and”; a condition that tells them apart may be missing. Equal entries are not always repeated.

B1: D2FasL (D2 module of gp190 fused to the extracellular domain of hFasL) (ligand, UniProt P42702 329-542, looked up)
chain: AGYPPDTPQQLNCETHDLKEIICSWNPGRVTALVGPRATSYTLVESFSGKYVRLKRAEAPTNESYQLLFQMLPNQEIYNFTLNAHNPLGRSQSTILVNITEKVYPHTPTSFKVKDINSTAVKLSWHLPGNFAKINFLCEIEIKKSNSVQEQRNVTIKGVENSSYLVALDKLNPYTLYTFRIRCSTETFWKWSKWSNKKQHLTTEASPSKGPDTWQKELAELRESTSQMHTASSLEKQIGHPSPPPEKKELRKVAHLTGKSNSRSMPLEWEDTYGIVLLSGVKYKKGGLVINETGLYFVYSKVYFRGQSCNNLPLSHKVYMRNSKYPQDLVMMEGKMMSYCTTGQMWARSSYLGAVFNLTSADHLYVNVSELSLVNFEESQTFFGLYKL
notes: extracellular domain of human FasL (hFasL), amino acids 108 to 281; source: COS cells, transiently transfected (pED4 vector), supernatant; for SPR in Opti-MEM, concentrated 100 times, dialysed against PBS
B2: Recombinant Fas-Fc (Fc fusion, UniProt P25445 26-173, looked up)
chain: QVTDINSKGLELRKTVTTVETQNLEGLHHDGQFCHKPCPPGERKARDCTVNGDEPDCVPCQEGKEYTDKAHFSSKCRRCRLCDEGHGLEVEINCTRTQNTKCRCKPNFFCNSTVCEHCDPCTKCEHGIIKECTLTSNTKCKEEGSRSN
notes: Fas (CD95/APO-1) part of a bought recombinant Fas-Fc; The reagents section also names a laboratory-made Fas-Fc purified on protein A; the SPR methods name the R&D Systems protein; source: bought: R&D Systems
B3: D1IgD2FasL (D1IgD2 modules of gp190 fused to the extracellular domain of hFasL) (ligand, UniProt P42702 49-542, looked up)
chain: APHDLKCVTNNLQVWNCSWKAPSGTGRGTDYEVCIENRSRSCYQLEKTSIKIPALSHGDYEITINSLHDFGSSTSKFTLNEQNVSLIPDTPEILNLSADFSTSTLYLKWNDRGSVFPHRSNVIWEIKVLRKESMELVKLVTHNTTLNGKDTLHHWSWASDMPLECAIHFVEIRCYIDNLHFSGLEEWSDWSPVKNISWIPDSQTKVFPQDKVILVGSDITFCCVSQEKVLSALIGHTNCPLIHLDGENVAIKIRNISVSASSGTNVVFTTEDNIFGTVIFAGYPPDTPQQLNCETHDLKEIICSWNPGRVTALVGPRATSYTLVESFSGKYVRLKRAEAPTNESYQLLFQMLPNQEIYNFTLNAHNPLGRSQSTILVNITEKVYPHTPTSFKVKDINSTAVKLSWHLPGNFAKINFLCEIEIKKSNSVQEQRNVTIKGVENSSYLVALDKLNPYTLYTFRIRCSTETFWKWSKWSNKKQHLTTEASPSKGPDTWQKELAELRESTSQMHTASSLEKQIGHPSPPPEKKELRKVAHLTGKSNSRSMPLEWEDTYGIVLLSGVKYKKGGLVINETGLYFVYSKVYFRGQSCNNLPLSHKVYMRNSKYPQDLVMMEGKMMSYCTTGQMWARSSYLGAVFNLTSADHLYVNVSELSLVNFEESQTFFGLYKL
notes: as for B1
B4: cleaved FasL (cFasL), spontaneously cleaved membrane FasL (ligand, human, UniProt P48023 127-281, looked up)
chain: LEKQIGHPSPPPEKKELRKVAHLTGKSNSRSMPLEWEDTYGIVLLSGVKYKKGGLVINETGLYFVYSKVYFRGQSCNNLPLSHKVYMRNSKYPQDLVMMEGKMMSYCTTGQMWARSSYLGAVFNLTSADHLYVNVSELSLVNFEESQTFFGLYKL
notes: human FasL, soluble product of the metalloprotease cleavage between amino acids 126 and 127; the C-terminal end 281 is the one printed for the extracellular domain; Homotrimer by gel filtration; also called sFasL; metalloprotease-cleaved FasL; source: COS cells transfected with wild-type FasL, supernatant (spontaneously cleaved by a metalloprotease); for SPR in serum-free medium, concentrated 100 …
B5: pFasL (polymeric soluble FasL; IgFasL chimera: Ig module of gp190 fused to the extracellular domain of hFasL) (ligand, UniProt P42702 246-328, looked up)
chain: WIPDSQTKVFPQDKVILVGSDITFCCVSQEKVLSALIGHTNCPLIHLDGENVAIKIRNISVSASSGTNVVFTTEDNIFGTVIFQKELAELRESTSQMHTASSLEKQIGHPSPPPEKKELRKVAHLTGKSNSRSMPLEWEDTYGIVLLSGVKYKKGGLVINETGLYFVYSKVYFRGQSCNNLPLSHKVYMRNSKYPQDLVMMEGKMMSYCTTGQMWARSSYLGAVFNLTSADHLYVNVSELSLVNFEESQTFFGLYKL
notes: Ig-like (Ig) module of the LIF receptor gp190, amino acids 246 to 328; extracellular domain of human FasL (hFasL), amino acids 108 to 281; source: COS cells, transiently transfected (pED4 vector), supernatant; for SPR in Opti-MEM, concentrated 100 times, dialysed against PBS; copies: 12

Experiments:
[1] = target: the molecule itself; assay: SEC; gel filtration on Sephacryl S-200-HR and S-300-HR columns; concentrated COS supernatants, eluted in PBS at 0.3 ml/min; FasL in the fractions found by ELISA; size of the oligomer of the FasL construct
Recombinant Fas-Fc = target: B2; assay: SPR; BIAcore 3000; Fas-Fc covalently coupled to a CM5 flow cell (2,000 RU); FasL constructs as concentrated, dialysed COS supernatants flowed over (0.2-100 nM IgFasL, 0.2-44 nM cFasL, 0.2-37.5 nM D2FasL, 0.25-8 nM D1IgD2FasL) in Hepes-buffered saline, 30 ul/min; 5 min association, 11 min dissociation; BIAeval 4.1; conditions: one partner purified
[2] = target: B4; assay: as above; conditions: one partner purified

| Binder | stoichiometry N [1] | Kd (Recombinant Fas-Fc) [nM] | koff (Recombinant Fas-Fc) [s⁻¹] | kon (Recombinant Fas-Fc) [M⁻¹ s⁻¹] | Kd [2] [nM] | koff [2] [s⁻¹] | kon [2] [M⁻¹ s⁻¹] |
| --- | --- | --- | --- | --- | --- | --- | --- |
| B1 | 6 | 38.5 | 0.006 | 160000 |  |  |  |
| B2 |  |  |  |  | 69.4 | 0.0059 | 84000 |
| B3 | 6 | 25.6 | 0.0033 | 130000 |  |  |  |
| B4 | 3 |  |  |  |  |  |  |
| B5 | 12 and 6 | 11.6 | 0.00041 | 25000 |  |  |  |
